Publication PMC7154896, “The Effect of Recombinant Tags on Citrus paradisi Flavonol-Specific 3-O Glucosyltransferase Activity” (Plants, 2020)

T1: untagged Cp3GT (Citrus x paradisi, UniProt C5MR71)
T1 construct: recombinant, Pichia pastoris X-33 (pPicZa), C-terminal c-myc/6x His tags cut off with thrombin; cobalt IMAC; 56 kDa on gel
T1 sequence (C5MR71 1-468): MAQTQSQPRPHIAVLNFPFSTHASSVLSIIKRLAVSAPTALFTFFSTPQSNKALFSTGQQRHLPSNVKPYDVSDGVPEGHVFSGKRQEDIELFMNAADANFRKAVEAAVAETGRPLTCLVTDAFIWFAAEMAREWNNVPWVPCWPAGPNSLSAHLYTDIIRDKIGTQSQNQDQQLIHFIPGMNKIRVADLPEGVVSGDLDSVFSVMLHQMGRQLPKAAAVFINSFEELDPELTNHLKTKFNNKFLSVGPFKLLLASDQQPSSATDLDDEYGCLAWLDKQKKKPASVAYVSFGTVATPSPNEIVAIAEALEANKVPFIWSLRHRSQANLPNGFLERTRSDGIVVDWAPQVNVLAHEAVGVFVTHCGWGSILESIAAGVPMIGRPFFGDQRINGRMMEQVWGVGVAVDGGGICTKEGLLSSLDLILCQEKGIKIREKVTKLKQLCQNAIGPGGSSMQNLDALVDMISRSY

T2: tagged Cp3GT (Citrus x paradisi, UniProt C5MR71)
T2 construct: recombinant, Pichia pastoris X-33 (pPicZa), C-terminal thrombin site and c-myc/6x His tags kept; cobalt IMAC
T2 sequence (C5MR71 1-468): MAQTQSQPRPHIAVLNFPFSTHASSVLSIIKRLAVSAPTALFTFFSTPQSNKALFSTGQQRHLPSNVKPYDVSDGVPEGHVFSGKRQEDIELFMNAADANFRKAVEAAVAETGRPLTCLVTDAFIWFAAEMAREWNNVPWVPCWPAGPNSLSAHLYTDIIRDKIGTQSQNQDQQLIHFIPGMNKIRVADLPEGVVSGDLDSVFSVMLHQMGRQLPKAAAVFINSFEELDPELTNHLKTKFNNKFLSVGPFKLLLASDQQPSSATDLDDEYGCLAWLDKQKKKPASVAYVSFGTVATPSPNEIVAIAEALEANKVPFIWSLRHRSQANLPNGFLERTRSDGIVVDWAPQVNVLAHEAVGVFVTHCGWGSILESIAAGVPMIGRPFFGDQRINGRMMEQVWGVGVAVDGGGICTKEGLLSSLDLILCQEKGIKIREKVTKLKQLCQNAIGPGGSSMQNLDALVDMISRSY


Columns and labels:
[1] = target: T1, untagged Cp3GT; test: glucosyltransferase assay, UDP inhibition; assay type: biochemical
[2] = target: T2, tagged Cp3GT; test: glucosyltransferase assay, UDP inhibition; assay type: biochemical
[3] = substrate: O=c1c(O)c(-c2ccc(O)cc2)oc2cc(O)cc(O)c12; test: purified protein; conditions: acceptor varied 0–667 µM, non-limiting UDP-glucose, 30 °C, pH 7.5, µM
[4] = substrate: O=c1ccn([C@@H]2O[C@H](CO[P@@](=O)(O)O[P@@](=O)(O)O[C@H]3O[C@H](CO)[C@@H](O)[C@H](O)[C@H]3O)[C@@H](O)[C@H]2O)c(=O)[nH]1; test: glucosyltransferase assay, Lineweaver-Burk; assay type: biochemical, Citrus x paradisi; conditions: UDP-glucose varied 0–1333 µM, non-limiting acceptor (not named), 30 °C, pH 7.5, µM
Text: (§1) glucosyltransferase assay, Lineweaver-Burk on tagged Cp3GT

[5] = substrate: O=c1c(O)c(-c2ccc(O)c(O)c2)oc2cc(O)cc(O)c12; test: glucosyltransferase assay, Lineweaver-Burk; assay type: biochemical, Citrus x paradisi; conditions: acceptor varied 0–667 µM, non-limiting UDP-glucose, 30 °C, pH 7.5, µM
Text: as §1

[6] = substrate: O=c1ccn([C@@H]2O[C@H](CO[P@@](=O)(O)O[P@@](=O)(O)O[C@H]3O[C@H](CO)[C@@H](O)[C@H](O)[C@H]3O)[C@@H](O)[C@H]2O)c(=O)[nH]1; test: glucosyltransferase assay, Lineweaver-Burk; assay type: biochemical, Citrus x paradisi; conditions: UDP-glucose varied 0–1333 µM, non-limiting acceptor (not named), 30 °C, pH 7.5, µM; remark: listed apart in the source
Text: (§2) glucosyltransferase assay, Lineweaver-Burk on untagged Cp3GT

[7] = substrate: O=c1c(O)c(-c2ccc(O)c(O)c2)oc2cc(O)cc(O)c12; test: glucosyltransferase assay, Lineweaver-Burk; assay type: biochemical, Citrus x paradisi; conditions: acceptor varied 0–667 µM, non-limiting UDP-glucose, 30 °C, pH 7.5, µM; remark: listed apart in the source
Text: as §2

Ki [1] [µM] | Ki [2] [µM] | Molecule | Km [3] [µM] | kcat [3] [s⁻¹] | kcat/Km [3] [M⁻¹ s⁻¹] | Km [4] [µM] | kcat [4] [s⁻¹] | kcat/Km [4] [M⁻¹ s⁻¹] | Km [5] [µM] | kcat [5] [s⁻¹] | kcat/Km [5] [M⁻¹ s⁻¹] | Km [6] [µM] | kcat [6] [s⁻¹] | kcat/Km [6] [M⁻¹ s⁻¹] | Km [7] [µM] | kcat [7] [s⁻¹] | kcat/Km [7] [M⁻¹ s⁻¹]
73.1 | 61.8 | O=c1ccn([C@@H]2O[C@H](COP(=O)(O)OP(=O)(O)O)[C@@H](O)[C@H]2O)c(=O)[nH]1 [UDP] |  |  |  |  |  |  |  |  |  |  |  |  |  |  | 
 |  | tagged Cp3GT (Citrus x paradisi) (protein, recombinant, Pichia pastoris X-33 (pPicZa), C-terminal thrombin site and c-myc/6x His tags kept; cobalt IMAC) MAQTQSQPRPHIAVLNFPFSTHASSVLSIIKRLAVSAPTALFTFFSTPQSNKALFSTGQQRHLPSNVKPYDVSDGVPEGHVFSGKRQEDIELFMNAADANFRKAVEAAVAETGRPLTCLVTDAFIWFAAEMAREWNNVPWVPCWPAGPNSLSAHLYTDIIRDKIGTQSQNQDQQLIHFIPGMNKIRVADLPEGVVSGDLDSVFSVMLHQMGRQLPKAAAVFINSFEELDPELTNHLKTKFNNKFLSVGPFKLLLASDQQPSSATDLDDEYGCLAWLDKQKKKPASVAYVSFGTVATPSPNEIVAIAEALEANKVPFIWSLRHRSQANLPNGFLERTRSDGIVVDWAPQVNVLAHEAVGVFVTHCGWGSILESIAAGVPMIGRPFFGDQRINGRMMEQVWGVGVAVDGGGICTKEGLLSSLDLILCQEKGIKIREKVTKLKQLCQNAIGPGGSSMQNLDALVDMISRSY | 44.1 ± 3.41 | 1.28 | 29000 | 49.7 ± 5.32 | 0.637 ± 0.092 | 12000 ± 2000 | 51.9 ± 8.29 | 1.84 ± 0.19 | 35000 ± 1000 |  |  |  |  |  | 
 |  | untagged Cp3GT (Citrus x paradisi) (protein, recombinant, Pichia pastoris X-33 (pPicZa), C-terminal c-myc/6x His tags cut off with thrombin; cobalt IMAC; 56 kDa on gel) MAQTQSQPRPHIAVLNFPFSTHASSVLSIIKRLAVSAPTALFTFFSTPQSNKALFSTGQQRHLPSNVKPYDVSDGVPEGHVFSGKRQEDIELFMNAADANFRKAVEAAVAETGRPLTCLVTDAFIWFAAEMAREWNNVPWVPCWPAGPNSLSAHLYTDIIRDKIGTQSQNQDQQLIHFIPGMNKIRVADLPEGVVSGDLDSVFSVMLHQMGRQLPKAAAVFINSFEELDPELTNHLKTKFNNKFLSVGPFKLLLASDQQPSSATDLDDEYGCLAWLDKQKKKPASVAYVSFGTVATPSPNEIVAIAEALEANKVPFIWSLRHRSQANLPNGFLERTRSDGIVVDWAPQVNVLAHEAVGVFVTHCGWGSILESIAAGVPMIGRPFFGDQRINGRMMEQVWGVGVAVDGGGICTKEGLLSSLDLILCQEKGIKIREKVTKLKQLCQNAIGPGGSSMQNLDALVDMISRSY | 53.7 ± 10.6 | 1.34 | 25000 |  |  |  |  |  |  | 55.0 ± 4.97 | 0.738 ± 0.125 | 12000 ± 400 | 42.4 ± 3.48 | 1.54 ± 0.06 | 36000 ± 1000
